Eight molecules from patent publication US20120315270A1 (UNITED STATES OF AMERICA AS REPRESENTED BY THE, published 2012) can be followed below.

The target of test [1] is T1, Motavizumab fragment of antigen binding (Fab).
T1 construct: also called motavizumab Fab
Nature of the test: SPR (Biacore), motavizumab Fab immobilised, immunogen injected. In general terms: In SPR one partner is held on a chip, and binding of the other changes the refractive index at the surface.

The target of test [2] is T1, Motavizumab fragment of antigen binding …. The description is as above. This is another data set of the same source.
Test [3] deals with RSV F glycoprotein on GFP-expressing RSV (respiratory syncytial virus, UniProt P03420 26-574). Nature of the test: cell-based or functional assay.
In a further test the target is 1lp1b-003 F2Y H15N. The test can be described thus: co-crystallization.
The target in the next test is T2, 1lp1b-003_K272E.
T2 construct: also called 1lp1b(K272E)
The test can be described thus: SPR (Example 7).

Test [4] addresses motavizumab (as used in ITC). Nature of the test: ITC.

Changes are numbered by the printed parent chain. Like-named read-outs stand apart in the source and are kept apart here.

B1: 1s2xa_002 (designed binder)
chain: GSPNSRVDELGFNEAERQKILDSNSSLMRNANEVRDKFIQNYATSLKDSNDPQDFLRRVQELRINMQKNFISFDAYYNYLNNLVLASANRASQELSFINDTIKNNDTKKLFSNEAADNFNNFTADEVARISDLVASYLPREYLPPFIDGNMMGVAFQILGIDDFGKKLNEIVQDIGTKY
The Kd is the concentration at which binding is half-saturated. As for B1, the Kd in test [1] and in test [2] was 3.64 µM each time.

B2: 1s2xa_001 (designed binder)
chain: B1 chain with A91C, I98A, A115I
In the case of B2, the dissociation constant (Kd) in test [1] and in test [2] was 4.75 µM in each case.

B3: 2eiaa_001 (designed binder)
chain: APRGYTTWVNTIQTNGLLNEASQNLFGILSVDATSEEMNAFLDVVPGQAGQKQILLDAIDKIADDWDNRHPLPNAPLVAPPQGPIPMTARFIRGLGVPRERQMEPAFDQFRQTYRQWIIEAMSEGIKVMIGKPKAQNIRQGAKEPYPEFVSRLLSQINDEGHPNDIKKLRSNTLTIQNANEECRNAMRHLRPSDTGAEKMYACRDIG
Turning to B3, the binding result in test [2] is on record as “no binding”.

B4: motavizumab IgG (antibody, V domains shown)
VH: QVTLRESGPALVKPTQTLTLTCTFSGFSLSTAGMSVGWIRQPPGKALEWLADIWWDDKKHYNPSLKDRLTISKDTSKNQVVLKVTNMDPADTATYYCARDMIFNFYFDVWGQGTTVTVSS
VL: DIQMTQSPSTLSASVGDRVTITCSASSRVGYMHWYQQKPGKAPKLLIYDTSKLASGVPSRFSGSGSGTEFTLTISSLQPDDFATYYCFQGSGYPFTFGGGTKVEIK
Turning to B4, in test [3], the “EC50 (read off the curve), neutralization of GFP-expressing RSV on HEp-2 cells, flow cytometry” value is approximately 60 pM.

B5: motavizumab (format in the assay not stated) (antibody, V domains shown)
VH: B4 VH
VL: B4 VL
For the molecule B5, the binding result with 1lp1b-003 F2Y H15N is recorded as “binds”.

B6: motavizumab Fab (Fab, V domains shown)
VH: B4 VH
VL: B4 VL
notes: also called the Fab
In the case of B6, the binding result with 1lp1b-003_K272E was “no binding”.

B7: 1s2xa_003 (designed binder)
chain: GSPNSRVDELGFNEAERQKILDSNSSLMRNANEVRDKFIQNYATSLKDSNDPQDFLRRVQELRINMQKNFISFDAYYNYLNNLVLASANRASQELSFANDTIKNNDTKKLFSNEIADNFNNFTADEVARISDLVASYLPREYLPPFIDGNMMGVAFQILGIDDFGKKLNEIVQDIGTK
notes: also called Cag-Z
In test [1], B7 had an equilibrium dissociation constant (Kd) of 3 µM. Moreover, in test [4], the “-TdS” value came to 9.9, the equilibrium dissociation constant (Kd) came to 0.147 µM and the dH is -19.2. The molecule also displayed a dissociation constant (Kd) in test [2] of 3 µM.

B8: 1s2xa_004 (designed binder)
chain: B7 chain with A98I, I115A
As for B8, in test [4], the “-TdS” value came out at 10.7, binding was characterised by a dissociation constant (Kd) of 0.275 µM and the dH was -19.6. Also, in test [2], the Kd turned out to be 3.95 µM.
